In the supplement of paper PMC12042874:
± gives the uncertainty stated by the source.

Assay: amyloid nucleation score (Sup35N fusion, yeast selection) (log enrichment); library NNK3; higher = more nucleation; inactive = no reads after selection
Method in brief: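 The nucleation score, computed with DiMSum, is the log enrichment of output over input reads, centred on the mode score of non-aggregating sequences. Sequences with under 100 input reads were dropped. Reads were generated by Illumina sequencing of plasmid inserts from psi-negative yeast with Sup35N fused to peptides of 20 random codons, induced with 100 μM copper sulfate for 24 hours and grown 7 days at 30°C on medium lacking adenine and uracil.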

| Substance | amyloid nucleation score |
| --- | --- |
| SNLSNPLIVMKFYQAAMGVH | inactive |
| LSMHVVFVYIGFPHMDFDGS | inactive |
| YGVLS | inactive |
| SSFGQICIRSMQYLVGCKWC | inactive |
| DFYLDLITLDNRTTSSTSML | inactive |
| MCKMLFSFLCLHKYCWVNVL | inactive |
| GSSIEPDWL | inactive |
| LSFRTQALFYFVMLYGIWRA | inactive |
| DCFFRSVDLADSR | inactive |
| LHHAVVREWRFQKNVCRQLR | inactive |
| AYGRVTMCIGWKDPYGRCL | 0.638 ± 0.31 |
| FLVCHDYAYETVG | inactive |
| NWLSMQRTLFWP | -0.38 ± 0.5 |
| SVYCCIDKLLHSAKSRLFMM | inactive |
| KIWNCVYVGWNIVVNNIKGL | 2.66 ± 0.076 |
| NNLVPYLVWYCVTRNKTNGN | inactive |
| QTRVTVYSWVPRDYFSQHED | inactive |
| GNMQVRYRIESANNRMGQRE | 0.261 ± 0.47 |
| EGMEWVVEDNFRKMCYTARF | inactive |
| VFHHIILRFN | inactive |
| SLDMYPVVKKCYTYFFFQYF | 1.16 ± 0.11 |

| Substance | amyloid nucleation score |
| --- | --- |
| TIWAGMLASR | inactive |
| TKGFDVPT | inactive |
| SNVCINLAGYDYIFFRCMMG | 0.293 ± 0.24 |
| IAARW | inactive |
| NLWVEGRKAQENMDPDARSR | inactive |
| PWDDYTAQIGLYSFPPWLYV | inactive |
| PSYEAASK | inactive |
| FSGRYGTRLPLYSGRFKWFI | inactive |
| GIGLCVGYE | inactive |
| GIWCDITHGNRMAWNYVLIR | inactive |
| LMGVDSLLYRKHSGV | inactive |
| VVQGGGELVWFMFYDARCGT | inactive |
| MNFGFWGTVHWSHASNHVGS | inactive |
| IISQAQFSVAYLLCWRQCYV | 1.2 ± 0.082 |
| RAALPMVFHRFLTFMDAFLV | 1.83 ± 0.075 |
| GGFRISHSIC | inactive |
| GTNWCGIFLNFLLFVML | inactive |
| PLSPFYAAWDYMILCVG | inactive |
| TTSEAIMLGCSISTYNQSGN | inactive |
| YSSGSFCLFKWSIHR | 1.65 ± 0.065 |
| WSSSS | inactive |

| Substance | amyloid nucleation score |
| --- | --- |
| WWRKPLTFNDRIWRLRKHRS | inactive |
| VLNSRTTPFI | inactive |
| VHLWGGRGHQLVWVHVRWGV | inactive |
| YLHVVTWLMNACPGQPRHWL | inactive |
| IWLRVITLERLEPQM | inactive |
| SVWRECNGKFVSFASHFADY | inactive |
| LSTFMWNQAVWTPRIFWRCA | inactive |
| HLFSNTWYTK | inactive |
| NDFLDVGSVSSYVNTQLPMS | -0.086 ± 0.8 |
| PTAVVVGYHSYVTFRAVKCV | inactive |
| FLLIIHHST | -0.126 ± 0.6 |
| DVYKNPLSEQPSRYCTE | inactive |
| EVLEFVSNGGMVTEMGP | inactive |
| KVNTLRVEDIWTSQAFVCMV | inactive |
| TSYDFTMARYCSNDYVFIWH | 2.44 ± 0.061 |
| LIRVGKDRVVSMEEVRCLLR | inactive |
| RHLLLTGKSWCVQACPGRTV | -0.965 ± 1.1 |
| CVMLVAVQGR | inactive |
| IFQKIECLTGMGIVGCSTSM | inactive |
| KSDVS | inactive |
| FNFFQCFRQNASTIFSSGML | inactive |

| Substance | amyloid nucleation score |
| --- | --- |
| CNCVYSSANFCDIMYTNRLG | 1.14 ± 0.085 |
| TRDQHIIYYFVEPFKIITGM | 1.5 ± 0.099 |
| CCEFC | inactive |
| KSSTNMEMRMSHLGLLIGEV | inactive |
| GYMRSLYIRYYSRRRFRCI | inactive |
| DVLLVIKVDYQVGLARVSRL | inactive |
| CCSSCVWGRVFRSSAMPPRI | inactive |
| TDGRITS | 0.492 ± 0.35 |
| IMHIYYTYSIPLCDRRGRSY | 0.856 ± 0.26 |
| YLVRLVSDITRKNR | 2.37 ± 0.071 |
| VLLDMFRNFVWNSRVVFNGS | inactive |
| ALGIICVGLAFDGSLDLTS | 1.25 ± 0.15 |
| CDSTPYFLMGSWLG | inactive |
| THVPYIT | inactive |
| ANRKSRVKSEEWAEVNGCWG | inactive |
| SSRVNKGEVARLVVSIPIIH | inactive |
| YCVWLVSKTISWFQTVFI | inactive |
| KEVTSLVLIVFT | 0.58 ± 0.17 |
